# T1: K8(1-129)/intact K18 heterotypic complex (human, UniProt P05787 2-130; P05783 2-430)
# T1 construct: Heterotypic complex of two GST fusion proteins; not shown: glutathione S-transferase (GST) fusion partner, modified pGEX-2T vector
# T1 chain 1: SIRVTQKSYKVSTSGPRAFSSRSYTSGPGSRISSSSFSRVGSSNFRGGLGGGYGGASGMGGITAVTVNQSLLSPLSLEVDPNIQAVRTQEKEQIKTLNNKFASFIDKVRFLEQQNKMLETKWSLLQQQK
# T1 chain 2: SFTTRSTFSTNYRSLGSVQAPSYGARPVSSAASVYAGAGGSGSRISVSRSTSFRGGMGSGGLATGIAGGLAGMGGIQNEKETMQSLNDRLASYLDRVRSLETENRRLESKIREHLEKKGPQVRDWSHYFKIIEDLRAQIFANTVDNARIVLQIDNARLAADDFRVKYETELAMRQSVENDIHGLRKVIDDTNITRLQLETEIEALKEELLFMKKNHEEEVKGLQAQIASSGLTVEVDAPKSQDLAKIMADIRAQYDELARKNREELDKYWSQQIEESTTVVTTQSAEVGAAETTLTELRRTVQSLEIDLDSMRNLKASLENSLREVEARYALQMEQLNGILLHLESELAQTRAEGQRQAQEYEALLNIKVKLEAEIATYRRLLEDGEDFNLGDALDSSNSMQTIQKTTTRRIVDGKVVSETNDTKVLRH
# T2: intact K8/K18(1-65) heterotypic complex (human, UniProt P05787 2-483; P05783 2-66)
# T2 construct: Heterotypic complex of two GST fusion proteins; not shown: glutathione S-transferase (GST) fusion partner, modified pGEX-2T vector
# T2 chain 1: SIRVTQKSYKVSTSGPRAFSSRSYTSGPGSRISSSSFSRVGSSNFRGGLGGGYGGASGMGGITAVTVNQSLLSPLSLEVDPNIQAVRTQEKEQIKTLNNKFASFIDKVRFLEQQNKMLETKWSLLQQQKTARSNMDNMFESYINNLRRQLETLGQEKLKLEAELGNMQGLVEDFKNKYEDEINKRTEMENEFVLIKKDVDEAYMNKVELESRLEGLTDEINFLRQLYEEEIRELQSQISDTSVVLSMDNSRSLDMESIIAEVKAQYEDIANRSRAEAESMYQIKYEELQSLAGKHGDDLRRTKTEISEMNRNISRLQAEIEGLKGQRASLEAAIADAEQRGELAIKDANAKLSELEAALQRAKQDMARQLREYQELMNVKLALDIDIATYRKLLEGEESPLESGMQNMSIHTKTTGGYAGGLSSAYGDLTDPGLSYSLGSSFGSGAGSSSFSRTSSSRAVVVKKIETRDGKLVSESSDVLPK
# T2 chain 2: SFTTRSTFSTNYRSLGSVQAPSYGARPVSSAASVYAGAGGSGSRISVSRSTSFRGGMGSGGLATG
# T3: K8(1-233)/K18(1-72) heterotypic complex (human, UniProt P05787 2-234; P05783 2-73)
# T3 construct: Heterotypic complex of two GST fusion proteins; not shown: glutathione S-transferase (GST) fusion partner, modified pGEX-2T vector
# T3 sequence 1: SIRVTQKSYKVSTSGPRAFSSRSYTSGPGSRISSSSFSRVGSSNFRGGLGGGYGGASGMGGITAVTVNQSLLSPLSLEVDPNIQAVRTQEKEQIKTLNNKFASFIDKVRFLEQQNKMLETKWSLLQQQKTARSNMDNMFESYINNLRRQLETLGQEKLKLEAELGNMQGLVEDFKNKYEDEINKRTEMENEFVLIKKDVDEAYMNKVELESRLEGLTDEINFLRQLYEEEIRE
# T3 sequence 2: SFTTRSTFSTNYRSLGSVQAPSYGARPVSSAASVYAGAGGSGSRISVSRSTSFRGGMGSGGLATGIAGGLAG
# T4: K8(1-85)/K18(1-187) heterotypic complex (human, UniProt P05787 2-86; P05783 2-188)
# T4 construct: Heterotypic complex of two GST fusion proteins; not shown: glutathione S-transferase (GST) fusion partner, modified pGEX-2T vector
# T4 chain 1: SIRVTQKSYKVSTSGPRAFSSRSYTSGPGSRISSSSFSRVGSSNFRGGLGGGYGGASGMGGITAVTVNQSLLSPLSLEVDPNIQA
# T4 chain 2: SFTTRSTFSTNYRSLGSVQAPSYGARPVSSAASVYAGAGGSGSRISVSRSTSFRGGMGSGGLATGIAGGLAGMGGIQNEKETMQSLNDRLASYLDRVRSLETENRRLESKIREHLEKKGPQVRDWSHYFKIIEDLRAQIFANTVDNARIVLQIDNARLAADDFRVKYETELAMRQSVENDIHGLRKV
# T5: K8(1-85)/K18(1-72) heterotypic complex (human, UniProt P05787 2-86; P05783 2-73)
# T5 construct: Heterotypic complex of two GST fusion proteins; not shown: glutathione S-transferase (GST) fusion partner, modified pGEX-2T vector
# T5 chain 1: T4 chain 1
# T5 chain 2: T3 sequence 2
# T6: intact K18, native (band 3 of cytokeratin purified from colon cancer tissue; K18 in fixed cancer cells) (human, UniProt P05783 2-430, acetylated serine at its N-terminus)
# T6 construct: Natural protein, no tag; also called normal K18; cytokeratin 18
# T6 sequence: T1 chain 2
# T7: intact K8, native (band 1 of cytokeratin purified from colon cancer tissue; K8 in fixed cancer cells) (human, UniProt P05787 2-483, N-terminally blocked)
# T7 construct: Natural protein, no tag; also called normal K8; cytokeratin 8
# T7 chain: T2 chain 1
# T8: intact K8/intact K18 heterotypic complex (recombinant GST fusion proteins) (human, UniProt P05787 2-483; P05783 2-430)
# T8 construct: Heterotypic complex of two GST fusion proteins; also called intact K8/K18 complex; not shown: glutathione S-transferase (GST) fusion partner, modified pGEX-2T vector
# T8 chain 1: T2 chain 1
# T8 chain 2: T1 chain 2
# B1: human monoclonal IgM antibody COU-1 (antibody, V domains shown)
# VH: GAEVKKPGASVKVSCKASDYTFSSYYMHWVRQAPGQGLEWMGIINPSGGSTSYAQKFQGRVTMTRDTSTNTVYMELSSLRSEDTAVYYCARDQVVVAATLSNYGMDVWGQGTTVTVSS
# VL: ELTQSPGTLSLSPGERATLSCRASQSVSSSYLAWYQQKPGQAPRLLIYDASNRATGIPARFSGSGSGTDFTLTISSLEPEDFAVYYCQQGTNWGIAFGQGTRLDIKR
# notes: Human IgM with kappa light chain, secreted by hybridoma B9165 (ECACC 87040201), purified from culture supernatant; also called HMab COU-1; HuMab COU-1
# Tests used:
# [1] = molecular target: T1, K8(1-129)/intact K18 heterotypic complex; assay: ELISA: complex coated at 5 µg/ml, COU-1 in serial dilutions, AP-labeled anti-human kappa antibody
# Method: A 5 μg/ml solution of these complexes was used to coat ELISA plates.
# ELISA wells (Costar, Cambridge, Mass.) were coated overnight at 4° C. with fractions from cytokeratin purification procedures or with different recombinant K8/K18 complexes (5 μg/ml) in PBS, pH 7.4. […] Plates were washed 10× with PBS-0.05% Tween 20 and bound antibody was detected with alkaline phosphatase (AP)-labeled goat anti-human kappa-chain (Sigma) diluted 1000 fold in PBS. Bound antibody was visualized with para-nitrophenylphosphate (Sigma)(1 mg/ml 1 mM MgCl₂, 10% (w/v) diethanolamine, pH 9.6) and read at 405 nm.
# Purified recombinant fragments of K8 or intact K8 were combined with purified recombinant fragments of K18 or intact K18 in a molar ratio of 1:1 to generate heterotypic complexes in urea. The samples were then dialyzed against PBS to allow the formation of the heterotypic complex, and coated at 5 μg/ml on ELISA plates.
# [2] = molecular target: T2, intact K8/K18(1-65) heterotypic complex; assay: heterotypic association Western blot (K18 fragments on the membrane, incubated with purified intact K8)
# Method: (§1) Panels of different C- or N-terminal-deleted or intact K8 and K18 proteins were separated by SDS-PAGE and transferred to a PVDF membrane, as described above. After blocking, the membrane was incubated for 16 h at 4° C. with 100 μg/ml of purified K8 or K18 protein in PBS, 2% BSA and 4 M urea; if K8 proteins were transferred to the membrane, the membrane was subsequently incubated with a purified K18 protein, and vice versa (38).
# [3] = molecular target: T3, K8(1-233)/K18(1-72) heterotypic complex; assay: heterotypic association assay: blotted K18 proteins incubated with purified K8(1-233), then stained with COU-1
# Method: as §1
# [4] = molecular target: T4, K8(1-85)/K18(1-187) heterotypic complex; assay: heterotypic association assay: blotted K8 proteins incubated with purified K18(1-187), then stained with COU-1
# Method: as §1
# [5] = molecular target: T5, K8(1-85)/K18(1-72) heterotypic complex; assay: heterotypic association Western blot
# Method: as §1
# [6] = molecular target: T6, intact K18, native (band 3 of …); assay: strips of a PVDF blot of SDS-PAGE-separated cytokeratin purified from colon cancer tissue
# Method: (§2) Protein bands were visualized with Coomassie Brilliant Blue. Separated proteins were also electroblotted onto polyvinylidene difluoride membranes (PVDF, Immobilon P, Millipore, Bedford, Mass.), at 100 Volts for 1 h in ice, using transfer buffer (10% (v/v) ethanol, 25 mM Tris, 200 mM glycine). Prior to transfer, the membrane was pre-soaked in ethanol for 2 min and the membranes and the gel were incubated in transfer buffer for 10 min. […] The membrane was washed in Western blot buffer and incubated with AP-conjugated rabbit-anti-goat IgG antibody (diluted 1/1000, Sigma), or AP-conjugated rabbit-anti-human IgM antibody (diluted 1/500, DAKO, Glostrup, Denmark) for 2 h at room temperature. Following 3 washes in PBS, the membrane was fixed with 0.2% glutaraldehyde in PBS for 15 min at room temperature and finally washed in PBS. Bound AP conjugate was visualized by NBT/BCIP (Bio-Rad, Hercules, Calif.). MCF7 or Colon 137 cells, resuspended in SDS sample buffer and sonicated, were used as antigen control. A low range protein marker (Bio-Rad) was used to indicate the molecular weight of the fragments.
# [7] = molecular target: T7, intact K8, native (band 1 of …); assay: as above
# Method: as §2
# [8] = molecular target: T8, intact K8/intact K18 heterotypic …; assay: SPR (BIAcore), complex immobilized, COU-1 injected
# Method: The sensor chip was activated for immobilization with N-hydroxysuccinimide and N-ethyl-N′-(3-diethyl aminopropyl) carbodiimide. The heterotypic cytokeratin complexes were coupled to the surface by injection of 50 μl of a 50 μg/ml sample. Excess activated esters were quenched with 30 μl 1 M ethanolamine, pH 8.5. Typically, 3000 resonance units were immobilized. […] The association was monitored as the increase in resonance units per unit time. Dissociation measurements were obtained following the end of the association phase with a flow rate of 20 μl/min. The binding surface was regenerated with 10 mM HCl, 1M NaCl, pH 2.0, and remained active for 10 measurements. The association and dissociation rate constants, kₒₙ and koff, were determined from a series of measurements, as described previously (39). Association and dissociation constants were deduced from kinetic data using the Bioevaluation program version 3.1 (Pharmacia).
binder,measurement,setting,value
B1,EC50 (read off the curve),[1],~0.6 µg/mL
same,binding result,[2],no binding (tested: COU-1 5 µg/ml)
same,binding result,[3],no binding (tested: 5 µg/ml COU-1 (P-0285))
same,binding result,[4],no binding (tested: 5 µg/ml COU-1 (P-0285))
same,binding result,[5],no binding (tested: COU-1 5 µg/ml)
same,binding result,[6],no binding (tested: 5 µg/ml COU-1 (P-0279))
same,binding result,[7],no binding (tested: 5 µg/ml COU-1 (P-0279))
same,Ka,[8],1.8e+07 M⁻¹
same,Kd,[8],55 nM
same,fold lower binding than to the truncated complexes,[8],~100 fold
same,koff,[8],0.0005 s⁻¹
same,kon,[8],9100 M⁻¹ s⁻¹
